The text below walks through data of patent US20020049159A1 (published 2002).

In the assay the target is T1, OP-1 pro domain polypeptide (human, UniProt P18075 30-292).
T1 construct: Two pro domains (39 kDa each) stand in the soluble complex with one mature dimer; The complex was isolated from CHO conditioned medium; also called pro domain peptide
Briefly: soluble complex purified from CHO conditioned medium without denaturants (Zn-IMAC, S-Sepharose, Sephacryl S-200HR gel filtration); elutes at an apparent 110 kDa. The method, then: In this example, OP-1 was expressed in mammalian (CHO, Chinese hamster ovary) cells as described in the art (see, for example, international application US90/05903 (WO 91/05802). The CHO cell conditioned media containing 0.5% FBS is initially purified using Immobilized Metal-Ion Affinity Chromatography (IMAC). The soluble OP-1 complex from conditioned media binds very selectively to the Zn-IMAC resin and a high concentration of imidazole (50 mM imidazole, pH 8.0) is required for the effective elution of the bound complex. The Zn-IMAC purified soluble OP-1 is next applied to an S-Sepharose action-exchange column equilibrated in 20 mM NaPO₄ (pH 7.0) with 50 mM NaCl. The protein then is applied to a Sephacryl S-200HR column equilibrated in TBS. Using substantially the same protocol, soluble morphogens can also be isolated from one or more body fluids, including milk, serum, cerebrospinal fluid or peritoneal fluid.
On the technique in general: SEC sorts molecules by how far they enter the pores of the column.

T1 sequence (P18075 30-292): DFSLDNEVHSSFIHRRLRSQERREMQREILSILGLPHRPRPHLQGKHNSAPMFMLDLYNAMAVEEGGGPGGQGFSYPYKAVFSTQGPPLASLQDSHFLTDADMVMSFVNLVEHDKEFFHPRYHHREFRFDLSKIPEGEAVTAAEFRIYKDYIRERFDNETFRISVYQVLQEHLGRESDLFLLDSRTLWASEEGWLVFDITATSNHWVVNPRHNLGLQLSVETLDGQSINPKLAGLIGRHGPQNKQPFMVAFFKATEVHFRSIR

B1: mature human OP-1 dimer (recombinant, expressed in CHO cells) (ligand)
chain: STGSKQRSQNRSKTPKNQEALRMANVAENSSSDQRQACKKHELYVSFRDLGWQDWIIAPEGYAAYYCEGECAFPLNSYMNATNHAIVQTLVHFINPETVPKPCCAPTQLNAISVLYFDDSSNVILKKYRNMVVRACGCH
notes: Dimer of 35-36 kDa, glycosylated when made in CHO cells; also called hOP-1; human osteogenic protein 1
As to B1, the binding result is on record as “binds”.
